Assay [1] concerns the target wild-type murine JAK2 (expressed in COS cells from pRK5) (murine).
For assay [2] the target is unchanged. The source holds these as a separate data set.

On to “HA-tagged SH2-Bβc (expressed in COS cells)”, for which the tyrosyl phosphorylation of JAK2 (αMyc immunoprecipitate, anti-phosphotyrosine blot) in assay [1] came out at 3 fold. In turn, “Myc-tagged SH2-Bβn (truncated at amino acid 555, lacks the SH2 domain)” registered a tyrosine phosphorylation of JAK2 (αJAK2 immunoprecipitate, anti-PY blot, densitometry normalised to JAK2) in assay [2] of 90%.
